Data set [1] deals with EGFR (on U87MG EGFR WT glioblastoma cells) (UniProt P00533). Put plainly: flow cytometry. Particulars: U87 EGFR WT cells, 1 nM-5 µM aptamer; no/low signal on EGFR-negative LN319 cells; 2'-fluoro pyrimidines (2'F-RNA); Flow cytometry: 300,000 cells detached with 0.2 M EDTA, 30 min with Cy5-aptamer; tissue: selection buffer, 2% BSA +/- 100 µg/mL yeast tRNA block, 1 h on ice ….

Data set [2] has as its target integrin α5β1 (on U87MG α5+ cells) (UniProt P08648+P05556). Put plainly: flow cytometry. Particulars: 2'-fluoro pyrimidines (2'F-RNA); Flow cytometry: 300,000 cells detached with 0.2 M EDTA, 30 min with Cy5-aptamer; tissue: selection buffer, 2% BSA +/- 100 µg/mL yeast tRNA block, 1 h on ice …; cited from earlier work.

Among the data in article PMC9609998 are Kd values, retold here.

Sequence of integrin α5β1 (on U87MG α5+ cells) (P08648 42-1049, chain 1 of 2): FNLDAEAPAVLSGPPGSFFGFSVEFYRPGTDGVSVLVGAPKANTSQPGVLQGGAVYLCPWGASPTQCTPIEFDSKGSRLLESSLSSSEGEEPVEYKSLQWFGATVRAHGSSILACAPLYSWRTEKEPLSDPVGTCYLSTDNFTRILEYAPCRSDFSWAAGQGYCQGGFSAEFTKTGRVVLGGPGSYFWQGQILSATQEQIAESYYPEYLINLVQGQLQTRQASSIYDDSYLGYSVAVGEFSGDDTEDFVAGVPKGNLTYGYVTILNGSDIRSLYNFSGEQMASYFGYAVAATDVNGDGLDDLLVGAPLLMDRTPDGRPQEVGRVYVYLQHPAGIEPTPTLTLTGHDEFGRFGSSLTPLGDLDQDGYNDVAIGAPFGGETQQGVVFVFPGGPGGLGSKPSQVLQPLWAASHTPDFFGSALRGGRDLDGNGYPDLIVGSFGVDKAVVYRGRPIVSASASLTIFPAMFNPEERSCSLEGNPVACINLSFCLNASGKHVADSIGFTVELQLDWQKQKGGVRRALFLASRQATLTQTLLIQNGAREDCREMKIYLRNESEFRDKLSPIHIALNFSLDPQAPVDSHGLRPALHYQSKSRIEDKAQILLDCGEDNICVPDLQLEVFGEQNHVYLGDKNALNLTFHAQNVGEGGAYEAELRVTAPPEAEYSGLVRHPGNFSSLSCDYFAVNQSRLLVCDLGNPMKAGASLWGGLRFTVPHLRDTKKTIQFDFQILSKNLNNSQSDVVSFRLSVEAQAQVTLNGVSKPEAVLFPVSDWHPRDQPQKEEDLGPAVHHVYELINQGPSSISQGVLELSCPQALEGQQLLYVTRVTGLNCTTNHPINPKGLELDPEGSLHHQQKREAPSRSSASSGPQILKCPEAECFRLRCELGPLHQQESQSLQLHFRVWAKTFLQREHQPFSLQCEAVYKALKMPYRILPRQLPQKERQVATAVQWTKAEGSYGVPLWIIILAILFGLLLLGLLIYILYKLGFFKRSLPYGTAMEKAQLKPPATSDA
Sequence of integrin α5β1 (on U87MG α5+ cells) (P05556 21-798, chain 2 of 2): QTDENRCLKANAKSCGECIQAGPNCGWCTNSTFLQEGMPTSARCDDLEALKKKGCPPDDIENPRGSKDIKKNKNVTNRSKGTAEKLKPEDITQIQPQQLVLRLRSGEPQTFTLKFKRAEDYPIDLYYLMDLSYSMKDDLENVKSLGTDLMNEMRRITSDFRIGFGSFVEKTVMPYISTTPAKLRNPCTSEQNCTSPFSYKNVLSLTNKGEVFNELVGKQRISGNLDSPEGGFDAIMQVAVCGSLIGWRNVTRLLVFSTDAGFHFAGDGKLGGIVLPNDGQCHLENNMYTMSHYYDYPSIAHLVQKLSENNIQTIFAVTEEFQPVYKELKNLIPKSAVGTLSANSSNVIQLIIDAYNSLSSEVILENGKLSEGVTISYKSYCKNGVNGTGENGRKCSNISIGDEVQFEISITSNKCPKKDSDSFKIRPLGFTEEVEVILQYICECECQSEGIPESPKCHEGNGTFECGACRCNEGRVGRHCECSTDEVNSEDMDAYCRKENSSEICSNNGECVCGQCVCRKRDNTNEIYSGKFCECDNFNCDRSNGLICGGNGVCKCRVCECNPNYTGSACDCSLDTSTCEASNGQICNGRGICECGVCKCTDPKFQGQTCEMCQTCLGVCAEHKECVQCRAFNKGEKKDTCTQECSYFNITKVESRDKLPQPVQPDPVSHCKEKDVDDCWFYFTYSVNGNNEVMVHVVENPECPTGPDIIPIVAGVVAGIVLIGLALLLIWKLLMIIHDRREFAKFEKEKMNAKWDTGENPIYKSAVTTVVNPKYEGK

For the sequence “GGACGGAUUUAAUCGCCGUAGAAAAGCAUGUCAAAGCCGGAACCGUCC [E07-Cy5]”, in data set [1], the dissociation constant (Kd) is 209 nM. On to “GGUUACCAGCCUUCACUGCGGACGGACAGAGAGUGCAACCUGCCGUGCCGCACCACGGUCGGUCACAC [H02-Cy5]”, for which, in data set [2], the dissociation constant Kd is 278 nM.
